According to publication PMC8924211 (Nature Communications, 2022):
Where a chain is given by its changes, count along the chain named.

Key:
Test in all cases: AlphaScreen or HTRF; saturation binding: HEK293 cells transfected with SNAP-tagged receptor (WT or mutant) and labelled with SNAP-Lumi4-Tb, incubated with increasing concentrations of galanin-A2 in the presence or absence of 100 uM unlabeled galanin, 1 h at room temperature; HTRF ratio 665 nm/620 nm
Conditions in all cases: one partner purified
SNAP-GAL2R H252^6.51A = target: T1, SNAP-GAL2R H252^6.51A (human, UniProt O43603 1-387, H252^6.51A, Lumi4-Tb on the SNAP tag)
T1 construct: also called H252A; source: HEK293, transfected, on cells; not shown: SNAP tag, N-terminal, kept
T1 sequence (looked up): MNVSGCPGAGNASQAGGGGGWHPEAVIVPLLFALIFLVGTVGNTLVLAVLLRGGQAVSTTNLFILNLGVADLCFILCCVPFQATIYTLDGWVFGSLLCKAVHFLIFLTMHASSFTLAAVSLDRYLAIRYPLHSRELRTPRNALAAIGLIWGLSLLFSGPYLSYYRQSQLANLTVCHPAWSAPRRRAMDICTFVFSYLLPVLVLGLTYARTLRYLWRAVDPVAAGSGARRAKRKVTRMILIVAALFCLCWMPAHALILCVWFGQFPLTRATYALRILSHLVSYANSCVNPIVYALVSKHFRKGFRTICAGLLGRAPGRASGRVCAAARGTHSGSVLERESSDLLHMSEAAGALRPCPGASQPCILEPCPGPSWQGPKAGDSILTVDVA

SNAP-GAL2R I256^6.55A = target: T2, SNAP-GAL2R I256^6.55A (human, UniProt O43603 1-387, I256^6.55A, Lumi4-Tb on the SNAP tag)
T2 construct: also called I256A; source: HEK293, transfected, on cells; not shown: SNAP tag, N-terminal, kept
T2 sequence (looked up): T1 sequence (looked up) with A252H, I256A

[1] = target: T3, N-terminal-SNAP-tagged GAL2R, wild type (human, UniProt O43603 1-387, Lumi4-Tb on the SNAP tag)
T3 construct: also called SNAP-GAL2R; GAL2R WT; source: HEK293, transfected, on cells; not shown: SNAP tag, N-terminal, kept
T3 sequence (looked up): T1 sequence (looked up) with A252H

SNAP-GAL2R L169^ECL2A = target: T4, SNAP-GAL2R L169^ECL2A (human, UniProt O43603 1-387, L169^ECL2A, Lumi4-Tb on the SNAP tag)
T4 construct: also called L169A; source: HEK293, transfected, on cells; not shown: SNAP tag, N-terminal, kept
T4 sequence (looked up): T1 sequence (looked up) with L169A, A252H

B1: galanin-A2 (full-length galanin labeled with the dye A2 on an additional cysteine at the C-terminal end) (peptide)
peptide: GWTLNSAGYLLGPHAVGNHRSFSDKNGLTSC
modifications: dye A2 on the additional C-terminal cysteine
notes: numbers count on: the mature protein; additional cysteine at the C-terminal end of the peptide, carries the dye A2; source: synthetic peptide (synthesized by Vazyme, China)
Work on B1 yielded a Kd (SNAP-GAL2R H252^6.51A) of 246 nM, a Kd (SNAP-GAL2R I256^6.55A) of 221 nM and a Kd [1] of 21.7 nM. It also gave a Kd (SNAP-GAL2R L169^ECL2A) of 86.2 nM.
